Test [1] has as its target soluble recombinant HLA-DR4 (HLA-DRβ1*04:01) (human). The test can be described thus: ELISA; apparent Kd; direct binding of biotin-labeled peptide to DR4 as in the DR-ELISA (72 h), binding reactions set up with 1 µM HLA-DM.
For test [2] the target is unchanged. The test can be described thus: ELISA.
Test [3] shares this target. The test can be described thus: dissociation kinetics (LB3.1 capture, europium-streptavidin time-resolved fluorescence).

These results are taken from paper PMC4077652, “An Unstable Th Epitope of P. falciparum Fosters Central Memory T Cells and Anti-CS Antibody Responses” (PLoS ONE, 2014).

Where no end group is shown, it is not given here.

B1: biotin-labeled QNT-Y peptide (QNT-5 analogue L335Y) (peptide)
peptide: QNSYSTEWSPCSVT
modifications: not fully specified (N-terminus)
For the molecule B1, the Kd in test [1] amounted to 0.0357 µM; in test [2], 0.0255 µM. The half-life in test [3] was found to be 138 h. In addition, the half-life with HLA-DM in test [3] came to 43.1 h.

B2: biotin-labeled QNT-5 332-345 peptide (peptide)
peptide: QNSLSTEWSPCSVT
modifications: not fully specified (N-terminus)
For the molecule B2, in test [1], the Kd is 0.714 µM. Further, the Kd in test [2] was 0.504 µM. Moreover, in test [3], the half-life is 5.08 h and the half-life with HLA-DM was 1.75 h.
